Series [1] concerns Nc1nc2c(c(=O)[nH]1)N1CN(c3ccc(C(=O)N[C@@H](CCC(=O)O)C(=O)O)cc3)CC1CN2. The series can be described thus: purified protein. To be noted: FAD catalytic domain; binding site shared with NAD(P)H, next to FAD; 46.0 °C.
Series [2] relates to NC(=O)C1=CN([C@@H]2O[C@H](COP(=O)(O)OP(=O)(O)OC[C@H]3O[C@@H](n4cnc5c(N)ncnc54)[C@H](OP(=O)(O)O)[C@@H]3O)[C@@H](O)[C@H]2O)C=CC1. The series can be described thus: purified protein. To be noted: FAD catalytic domain; binding site shared with CH2-THF, next to FAD; 46.0 °C.

By Km is commonly meant the concentration of substrate that gives half-maximal velocity. As for “5,10-methylenetetrahydrofolate reductase (MTHFR) (Homo sapiens)”, the Michaelis-Menten constant (Km) in series [1] was found to be 22.4 µM; in series [2] it was 23.5 µM.
